± gives the uncertainty stated by the source.
Assay: protein stability index of a GFP-peptide fusion (yeast GPS) (PSI 1-4); higher = more stable; sorted into four equal gates, so the index is relative within each strain
Summary of the method: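 Each library plasmid carries Cherry plus GFP with a tiled 17-residue yeast protein peptide fused downstream, and the pooled library was carried in yeast. Mid-log cultures in leucine-free medium were sorted into four equal gates by GFP/Cherry ratio. Reads from Illumina sequencing of PCR-amplified plasmids from each gate were assigned to strains by barcodes. Per peptide, the protein stability index was computed as the summed products of gate read frequency and gate number.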

Sequence | protein stability index (doa10∆) | protein stability index (pdr5∆) | protein stability index (san1∆) | protein stability index (ubr1∆)
LRSDFYILANHYLSRVL [YJL039C/NUP192] | 2.81 ± 0.054 | 2.85 ± 0.07 | 2.59 ± 0.07 | 2.44 ± 0.044
IILKTRQINKLIDSLPG [SRB7] | 2.31 ± 0.071 | 2.11 ± 0.047 | 2.62 ± 0.067 | 2.51 ± 0.058
MASRVDETTVPSYYYYV [ROX3] | 1.48 ± 0.07 | 2.24 ± 0.05 | 1.94 ± 0.096 | 1.94 ± 0.069
YLEENKSDSQYRFYEYI [MED1] | 3.04 ± 0.063 | 3.06 ± 0.062 | 3.12 ± 0.069 | 3.13 ± 0.086
TISEKEQDILDLIAEQV [SSN2] | 3.08 ± 0.14 | 3.25 ± 0.15 | 3.05 ± 0.12 | 2.97 ± 0.13
KDQLPDLESMGLTQLYK [MED7] | 2.85 ± 0.07 | 3.08 ± 0.071 | 2.87 ± 0.077 | 3.13 ± 0.069
VQYKLLSISVPSDVNID [SNU114] | 1.98 ± 0.076 | 2.5 ± 0.069 | 2.1 ± 0.074 | 2.44 ± 0.069
IPYAAKLLFQELLSMNI [RET1] | 1.55 ± 0.1 | 1.46 ± 0.084 | 1.31 ± 0.16 | 1.35 ± 0.056
VIVLSNISHLLEIASSI [SWI1] | 2.35 ± 0.059 | 1.67 ± 0.063 | 2.07 ± 0.082 | 1.8 ± 0.041
LWRNFCRKLSFSDKVNA [ITC1] | 2.09 ± 0.19 | 1.76 ± 0.2 | 1.14 ± 0.23 | 1.37 ± 0.094
NGVPGQALDAVRMRLAQ [MED8] | 1.38 ± 0.067 | 1.39 ± 0.063 | 1.25 ± 0.1 | 1.26 ± 0.047
VVDQLWSEISNELPDIE [RPN2] | 2.38 ± 0.12 | 2.94 ± 0.1 | 2.75 ± 0.12 | 2.69 ± 0.046
GSQIKFIVVPDLLKNAP [SMD3] | 2.05 ± 0.052 | 2.13 ± 0.047 | 1.8 ± 0.055 | 1.8 ± 0.038
NFNLKPTKTLTTKERKK [PRP8] | 1.98 ± 0.049 | 2.54 ± 0.074 | 2.19 ± 0.075 | 2.12 ± 0.041
NLGEYESAVKYALAAKD [RPN2] | 2.42 ± 0.15 | 2.65 ± 0.09 | 2.7 ± 0.09 | 2.8 ± 0.054
SFKLCTLLIAIRGSNRD [YML103C/NUP188] | 1.31 ± 0.048 | 1.78 ± 0.061 | 2.01 ± 0.077 | 2.41 ± 0.046
SQESINQKLALVIKSGK [RPL30] | 2.32 ± 0.097 | 2.65 ± 0.13 | 2.31 ± 0.11 | 2.4 ± 0.058
APEIPEDLYYLIKKAVS [RPS13] | 2.94 ± 0.081 | 2.92 ± 0.096 | 3.07 ± 0.079 | 2.69 ± 0.13
ADNGEEYLTLNDFNDLN [MED2] | 2.96 ± 0.23 | 3.3 ± 0.14 | 3.55 ± 0.12 | 3.27 ± 0.082
FVNGVATSFSRKKARTF [FAS2] | 1.85 ± 0.12 | 1.76 ± 0.11 | 1.22 ± 0.23 | 1.14 ± 0.074
KKRNPSKQNGSKFHFSW [PRP28] | 2.78 ± 0.054 | 2.62 ± 0.05 | 2.52 ± 0.052 | 2.49 ± 0.038
IRTILVNIHHLLNEYRP [MED7] | 2.21 ± 0.064 | 2 ± 0.065 | 1.65 ± 0.12 | 1.58 ± 0.053
MSGSLSRGNGGKKVLNK [POP1] | 1.34 ± 0.15 | 2.48 ± 0.11 | 1.32 ± 0.22 | 2.97 ± 0.11
VLKCLKSLESQRYVKSV [RPC34] | 1.72 ± 0.059 | 1.94 ± 0.054 | 1.99 ± 0.1 | 1.91 ± 0.07
AKKHKLNAITLDGDRAD [SMC3] | 2.37 ± 0.21 | 2.66 ± 0.28 |  | 
PEQVYSLLLTNVIITGS [ARP7] | 1.36 ± 0.06 | 1.39 ± 0.047 | 1.17 ± 0.11 | 1.23 ± 0.046

Sequence | protein stability index (doa10∆) | protein stability index (pdr5∆) | protein stability index (san1∆) | protein stability index (ubr1∆)
RFSPDEDFEHNNLSSMN [MCD1] | 2.69 ± 0.094 | 3.35 ± 0.18 | 3.09 ± 0.091 | 3.18 ± 0.074
VLKYMLLSKIMLNLIDD [RPN6] | 2.04 ± 0.06 | 1.49 ± 0.05 | 1.2 ± 0.098 | 1.66 ± 0.045
SVDDVLSALDHIGHSAL [DPB4] | 3.26 ± 0.2 | 3.53 ± 0.18 | 3.27 ± 0.083 | 3.46 ± 0.069
EPDRDENWIHVSCLSFM [LIN1] | 3.12 ± 0.051 | 3.07 ± 0.042 | 3.08 ± 0.042 | 3.11 ± 0.036
DLLDMIQFGAKNMFEKK [ISW2] | 3.25 ± 0.14 | 3.29 ± 0.24 | 3 ± 0.16 | 
KQLIMESQEKYMEPFDL [NSL1] | 3.29 ± 0.072 | 3.31 ± 0.054 | 3.32 ± 0.047 | 3.28 ± 0.039
DYDVSKKASEISVSSRS [SRP14] | 3.52 ± 0.15 |  | 3.2 ± 0.15 | 2.98 ± 0.21
NLWKNIFLSKENSAVAA [COR1] | 1.85 ± 0.053 | 2.24 ± 0.059 | 2.01 ± 0.13 | 1.61 ± 0.063
TNVNVKIKDVQQQIESN [SMC3] | 3.19 ± 0.088 | 3.17 ± 0.081 | 3.18 ± 0.074 | 2.79 ± 0.1
AIPNPEDVVAISSRTYG [RPS0B] | 3.33 ± 0.11 | 3.07 ± 0.055 | 2.99 ± 0.079 | 3.09 ± 0.047
FQKAQGSYAGHRKHIAV [YCG1] |  | 2.11 ± 0.28 | 2.29 ± 0.22 | 2.46 ± 0.095
VQQFAQLPVGFKNMGNT [UBP6] | 2.03 ± 0.1 | 1.74 ± 0.076 | 1.44 ± 0.15 | 1.92 ± 0.06
DVFDTLATYCPRVQGFY [GRR1] | 2.65 ± 0.075 | 2.26 ± 0.054 | 2.36 ± 0.078 | 2.6 ± 0.055
EVRDATLNNIFRFDSIQ [GRR1] | 3.18 ± 0.26 |  | 3.38 ± 0.2 | 3.24 ± 0.24
SYDVENVNSRNQLVEPN [SRB5] | 3.21 ± 0.12 | 3.26 ± 0.14 | 3.42 ± 0.13 | 3.34 ± 0.12
LEKGEIELSDGSTFKVN [YJL039C/NUP192] | 3.02 ± 0.079 | 3.1 ± 0.067 | 2.83 ± 0.073 | 2.95 ± 0.052
RENALYDYYALQLLPLQ [SNF2] | 2.63 ± 0.078 | 2.74 ± 0.045 | 2.72 ± 0.056 | 2.77 ± 0.042
SNRCIVFSKKEPFPHSK [CSN12] | 2.58 ± 0.052 | 2.85 ± 0.047 | 2.81 ± 0.065 | 2.72 ± 0.043
CFICLLHLANEHGLQIT [BRN1] | 2.54 ± 0.12 | 2.81 ± 0.17 | 2.61 ± 0.17 | 2.87 ± 0.087
SKQIFTHPKDTFYITRE [ARP9] | 3.11 ± 0.065 | 3.09 ± 0.056 | 2.93 ± 0.038 | 3.23 ± 0.039
AQDFKTDLRFQSSAIGA [HHT1] | 1.32 ± 0.12 | 1.41 ± 0.14 | 1.24 ± 0.19 | 1.3 ± 0.23
QERKDFLKKVMDTIQDK [ECM29] | 3.12 ± 0.13 | 3.41 ± 0.12 | 3.35 ± 0.11 | 3.17 ± 0.072
SEISIIDATLKEELLRD [RRP45] | 2.44 ± 0.094 | 2.22 ± 0.1 | 2.3 ± 0.099 | 2.83 ± 0.11
YNSRPRSVRIPWYNNPV [PRP8] | 2.34 ± 0.083 | 2.22 ± 0.062 | 1.73 ± 0.088 | 2.49 ± 0.049
YQELGSLQSSSQTQLEN [MED2] | 2.96 ± 0.11 | 3.3 ± 0.082 | 3.08 ± 0.08 | 3.17 ± 0.072
FNVHEVPRAALEERFDP [YMR129W/POM152] | 3.13 ± 0.067 | 3.15 ± 0.078 | 3.16 ± 0.069 | 3.03 ± 0.079

Reference: the supplement of paper PMC9732359
